PMC10779274
“And” between values parts separate entries of the source, which are not always exact repeats. Identical values can stand only once.

Key:
[1] = molecular target: Lsm protein of Haloferax mediterranei (Haloferax mediterranei); test: SEC; HiPrep 16/60 Sephacryl S-200 HR, 20 mM Tris-HCl pH 7.5, 2 M NaCl, 0.5 mL/min, calibrated with protein standards; without RNA
[2] = molecular target: Lsm protein of Haloferax mediterranei (Haloferax mediterranei); test: SEC; HiPrep 16/60 Sephacryl S-200 HR, 20 mM Tris-HCl pH 7.5, 1.5 M NaCl, 0.5 mL/min, calibrated with protein standards; without RNA; peaks checked by Western blot with anti-Lsm
[3] = molecular target: Lsm protein of Haloferax mediterranei (Haloferax mediterranei); test: SEC; HiPrep 16/60 Sephacryl S-200 HR, 20 mM Tris-HCl pH 7.5, 1 M NaCl, 0.5 mL/min, calibrated with protein standards; without RNA
[4] = molecular target: Lsm protein of Haloferax mediterranei (Haloferax mediterranei); test: SEC; HiPrep 16/60 Sephacryl S-200 HR, 20 mM Tris-HCl pH 7.5, 0.5 M NaCl, 0.5 mL/min, calibrated with protein standards; without RNA; peaks checked by Western blot with anti-Lsm

stoichiometry N [1]: 36 subunits | stoichiometry N [2]: 72 subunits and 36 subunits | stoichiometry N [3]: 36 subunits | stoichiometry N [4]: 36 subunits
Substance: Lsm protein of Haloferax mediterranei (natural protein)
